From patent US20160040149A1, “Compositions Having Dicamba Decarboxylase Activity and Methods of Use” (priority 2013, published 2016)

B1: 33 (protein, listed as Rhizobium leguminosarum)
chain: MAQGKIALEEHFAIPETLQDSAGFVPGDYWKELSARLLDIQEKRLRLMDAHGIEKMILSLNAPAVQAIPDRAKALEISRRANDFLAEQCVKNPNRFLGFAALPLQDPDAATQELQRCVTTMGFVGALVNGFSQEGDGTTPLYYDLPQYRSFWAEVEKLNVPFYLHPRNPLPQDSRIYAGHSWLMGPTWAFAQETAVHALRLMGSGLFDEHPALRIIVGHMGEGLPYMMWRIDNRNAWVKVEKSYPAKRPIADYFNENFYITTSGNFRTQSLIDAMLEIGADRILFSADWPFENIDHAANWFDSATISEADRLKIGRTNAVSLFKLDR
B2: 37 (protein, listed as Burkholderia gladioli)
chain: MATFSNVKKIALEEHFAIAETIEDSAGFVPPDDWVELRGRLLDIQERRLAEMDRAGIELMVLSLNAPAVQAIRDPRQAVELARRANDYLAEQVARRPDRFRAFAALPMQAPEQAIREAERCVRELGFVGALVNGFSEAEDGAELYYDLPRYRPFWAALEALEVPFYLHPRNPLAGRAPIYDGHSWLMGPTWAFGQETAVHALRLMGSGLFDAHPRLQIILGHMGEGLPYSMWRVDNRNAWVSAKPNYPAEKPIAEYFRNNFWLTTSGNFRTQTLIDAMLEIGSDRILFSADWPFENMDHAADWFDHASISENDRIKIGRGNAERLLKLGR
B3: 35 (protein)
chain: MAFKASRKIALEEHFAIDATVQDSAGFVPPSYWAELKRRLLDIHDRRIDEMDRNGVELMVLSLNAPTVQAVPNIKDAYDLSRRANDFLAEQIVKRPERFKGFAALPMQSPDLAARELERCVKELNFVGALVNGFSQVEESGTALYYDLPQYRQFWSVVQALDVPFYLHPRNPLPAHAPIYEGHPWLLGPTWAFGQETAVHALRLMGSGLFDEYPELKIILGHMGEGLPYSMWRIDNRNAWVETQPNYPAKKRIAEYFHKNFWLTTSGNFRTQTLIDAMLEIGSDRILFSTDWPFENVDHAAQWFDDAAISENDRIKIARTNAARLFKLEP
modifications: Burkholderia sp
B4: 34 (protein)
chain: MAQGKIGLEEHFAIPETLNDSAGFVPGDYWKELSRRLLDIQDDRLRQMDENGMEMMLLSLNAPAVQAVPDRKQACELAVRANDFLAEQVSRRPDRFQALAALPLQDPDFATVELTRCVNELGMRGALVNGFSQIDTPDNVVYYDAPQYASFWAAVEKLDVPFYLHPRNPIASWAQIYDGHPWLLGPTWAFGQETAVHALRLMASGLFDRHPALQIVLGHLGEGLPYSLWRIDNRNAWVKAPKTHPAKKTFRHYFQQNFHLTTSGNFHNQTLIDAILEIGADRILFSTDWPFENIDHAAKWFDSASISEADRTKIGRTNAMKLFKLVA
modifications: Cupriavidus necator
B5: 38 (protein, listed as Variovorax paradoxus)
chain: MAQGKIGLEEHFAIPQTLQDSAGFVPGVYWKELSSRLLDIHDGRLRQMDEHGMEMMILSLNAPAVQAVADPVKAYELAVRANDFLAEQVAKRPDRFQAFAALPMQDPEKATQELERCMSVLGFRGALVNGFSQVGTPDNVAYYDAPQYAPFWAAAERLDAPFYLHPRNPIASWAQIYEGHPWLLGPTWAFAQETAVHALRLMASGLFDRHPGLKIILGHLGEGLPYNMWRVDHRNAWVKAPKGYPAKRKLCEYFQENFYLTTSGNFRTQTLIDAMLEVGSDRILFSTDWPFENIDHASNWFNDTSISEADRKKIGRTNAMSLFKLA
B6: 40 (protein, listed as Rhodococcus jostii)
chain: MAQGKIALEEHFAIPETLNDSAGFVPGTYWDELQARLLDIQDVRLKLMDEHNIETMILSLNAPAVQAIPERERAIDIARRANDVLAEECAKRPDRFRGFAALPLQDPDAAAEELRRCVTELGFVGALVNGFSQSATVDGGSTPLYYDLPRYRPFWAEVERLDVPFYLHPRNPLNQDARIYEGHPWLLGPTWAFAQETAVHALRLMASGLFDEHPGLRIVLGHMGEGIPAMLWRIDHRNAWVDVPPAYPAKRRMVDYFTENFFVTTSGNFRTQTLIDLLLELGSERVMFSTDWPFENINHAAEWFDAASISEADRLKIGRTNAATLFKLDR
B7: 42 (protein)
chain: MAQGKIALEEHFAIPDTLQDSAGFVPGDYWKELSARLLDIHEQRLMQMDAYGIEKMILSLNAPAVQAIPDKAKALEISRRANDFLAEQCARNPDRFLGFAALPLQDPDAATAELQRCVKTLGFVGALVNGFSQEGDGVTPLYYDLPQYRGFWAEVEKLAVPFYLHPRNPLPQDSRIYAGHPWLMGPTWAFAQETAVHALRLVGSGLFDDHPALRIILGHMGEGLPYMMWRIDNRNAWVKVAPNYPAKRRIADYFNENFYITTSGNFRTQSLVDAMLEIGADRILFSTDWPFENIDHASDWFDTATISEADRLKIGRTNAATLFNLES
modifications: Agrobacterium radiobacter
B8: 31 (protein, listed as Agrobacterium sp.)
chain: MAQGKVALEEHFAIPETLQDSAGFVPGDYWKELQHRLLDIQDTRLKLMDAHGIETMILSLNAPAVQAIPDKTKAIEIARRANDVLAEECAKRPDRFLAFAALPLQDPDAATEELQRCVNDLGFVGALVNGFSQEGDGQTPLYYDLPQYRPFWGEVEKLDVPFYLHPRNPLPQDSRIYDGHPWLLGPTWAFAQETAVHALRLMASGLFDEHPRLNIILGHMGEGLPYMMWRIDHRNAWVKLPPRYPAKRRFMDYFNENFHITTSGNFRTQTLIDAILEIGADRILFSTDWPFENIDHASDWFNATSIAEADRVKIGRTNARRLFKLDGA
B9: 36 (protein, listed as Agrobacterium sp.)
chain: MAQGKVALEEHFAIPETLQDSAGFVPGDYWTELQHRLLDIQDTRLKLMDAHGIETMILSLNAPAVQAIPDKTKAIEIARRANDALAEECAKRPNRFLAFAALPLQDPDAATQELQRCVNDLGFVGALVNGFSQEGDGQIPLYYDLPQYRPFWGEVEKLDVPFYLHPRNPLPQDSRIYDGHPWLLGPTWAFAQETAVHALRLMASGLFDEHPRLNIILGHMGEGLPYMMWRIDHRNAWVKLPPRYPAKRRFVDYFNENFHITTSGNFRTQTLIDAILEIGADRILFSTDWPFENIDHASDWFHATSIAEADRVKIGRTNARRLFKLDGR
B10: 39 (protein, listed as Agrobacterium fabrum)
chain: MAQGKVALEEHFAIPETLQDSAGFVPGDCWTELQHRLLDIQDTRLKLMDAHGIETMILSLNAPAVQAIPDKTKAIEIARRANDALAEECAKRPDRFLAFAALPLQDPDAATQELRRCVNDLGFVGALVNGFSQEGDGQTPLYYDLPQYRPFWGEVEKLDVPFYLHPRNPLPQDSRIYDGHPWLLGPTWAFAQETAVHALRLMASGLFDEHPRLDIILGHMGEGLPYMMWRIDHRNAWVKLPPRYPAKRRFVDYFNENFHITTSGNFRTQTLIDAILEIGADRILFSTDWPFENIDHASDWFHATSIAEADRVKIGRTNARRLFKLDGR
B11: 30 (protein)
chain: MARGKIALEEHVSTPENNRLWDSTGEANRNGSEYMQDVERRLLDRSIQLEEMAQRNIDHVILSLTSPGAQSILDKAKAVSFARDTNDFIVDNYVKPNPDKFSAFATLALQNPEAAAEELERAVKKLGMKGALINGYTNVKDSEHGLYLDDESMLVFWDKVNELNVPVYLHPREPLEGPARGIYTGYESLIGSAWGFAQETAVHAIRLMMSGLFDRYPNLNLVLGHLGEGLVHMLPRTQHRLYRQRFGCGLGKAEKPLMHYLQNNFIVTTSGHFNTHSLNNAIEVMGADRVMFSVDYPYEDIHQACDWFDPLEMDEGLKEKIAWGNASRVFNIK
modifications: Enterobacter aerogenes

Assay: Saturation mutagenesis of SEQ ID NO:109: dicamba decarboxylation activity of point mutants (CO2 released), fold of backbone (Tables 7, 8, Megatable 1)
Settings: decarboxylation activity (CO2 released) of point mutant vs unmutated backbone protein; backbone SEQ ID NO: 109

B1 and B2 are the same in “Fold Activity” value: 1.6 fold for the first, 1.6 fold for the second.

First: B3
Second: B4
The “Fold Activity” value of the first is higher: 2.2 fold for the first, 1.6 fold for the second.

First: B5
Second: B6
The “Fold Activity” value of the first is higher: 1.8 fold for the first, 1.4 fold for the second.

B7 and B8 are the same in “Fold Activity” value: 1.7 fold for the first, 1.7 fold for the second.

Compared with B9, B10 is lower in “Fold Activity” value: 2 fold for the first, 1.6 fold for the second.

For B11, the “Fold Activity” value was 2 fold.
